The record followed here is US20150368625A1 (MIT, published 2015).

This assay addresses T1, Core fragment with 601 split + SZ17 (Bacteriophage T7, UniProt P00573 1-601).
T1 construct: Expressed constitutively in cells from a single copy plasmid, not purified; also called conserved fragment; 1-601 fragment
Kind of assay: reporter assay in cells: core at a constant level, sigma-like fragment induced, promoter->sfgfp read by flow cytometry. The procedure: Cells containing the three test plasmids (constitutive expression of core, promoter->sfgfp reporter, and pTac->sigma-like fragment) were inoculated into 0.5 mL LB+antibiotics and grown to saturation overnight. The overnight cultures were diluted 1:200 into 0.15 mL LB+antibiotics+100 μM IPTG and grown at 37° C., 1000 rpm for 6 hours. The fluorescence of the cells was quantified using a flow cytometer (FIG. 8). The assay was performed on three separate days, with three technical replicates per day. Data shown is the average value over all three days, with error bars representing the standard deviation between the mean values on each day.

Positions count from the first letter of the chain named.

T1 sequence (P00573 1-601, tags or fused parts left off): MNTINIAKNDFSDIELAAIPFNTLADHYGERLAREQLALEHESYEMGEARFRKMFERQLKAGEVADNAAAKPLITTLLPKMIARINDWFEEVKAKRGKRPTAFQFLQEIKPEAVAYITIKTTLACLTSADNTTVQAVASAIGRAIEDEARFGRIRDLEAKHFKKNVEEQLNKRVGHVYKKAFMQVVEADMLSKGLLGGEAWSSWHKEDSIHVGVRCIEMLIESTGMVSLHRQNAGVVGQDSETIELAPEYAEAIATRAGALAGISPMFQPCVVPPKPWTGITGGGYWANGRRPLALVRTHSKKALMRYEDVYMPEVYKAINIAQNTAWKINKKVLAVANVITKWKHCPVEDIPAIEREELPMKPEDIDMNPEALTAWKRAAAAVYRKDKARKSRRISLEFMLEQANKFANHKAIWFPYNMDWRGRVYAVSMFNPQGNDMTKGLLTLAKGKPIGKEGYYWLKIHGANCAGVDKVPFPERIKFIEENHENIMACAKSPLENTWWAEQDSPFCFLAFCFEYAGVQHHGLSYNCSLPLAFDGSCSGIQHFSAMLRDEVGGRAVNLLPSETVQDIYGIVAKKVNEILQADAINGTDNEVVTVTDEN

B1: T7 sigma-like fragment with 601 split + SZ18 (other)
chain: MSIAATLENDLARLENENARLEKDIANLERDLAKLEREEAYFGGSGGKNTGEISEKVKLGTKALAGQWLAYGVTRSVTKSSVMTLAYGSKEFGFRQQVLEDTIQPAIDSGKGLMFTQPNQAAGYMAKLIWESVSVTVVAAVEAMNWLKSAAKLLAAEVKDKKTGEILRKRCAVHWVTPDGFPVWQEYKKPIQTRLNLMFLGQFRLQPTINTNKDSEIDAHKQESGIAPNFVHSQDGSHLRKTVVWAHEKYGIESFALIHDSFGTIPADAANLFKAVRETMVDTYESCDVLADFYDQFADQLHESQLDKMPALPAKGNLNLRDILESDFAFA
notes: also called T7 fragment; variable fragment
For the molecule B1, the binding result is “binds”.

B2: T3 sigma-like fragment with 601 split + SZ18 (other)
chain: B1 chain with S80R, T193K, N196D, L197M, M198I
notes: also called T3 fragment; T3 sigma factor
For the molecule B2, the binding result was “binds”.

B3: K1FR sigma-like fragment with 601 split + SZ18 (other)
chain: B1 chain with S80R, M198R, Q202S, R204N, I209V
As for B3, the binding result was “binds”.
